In experiment [1] the target is T1, human folate receptor alpha (hFRα), recombinant protein (human, UniProt P15328 25-233).
T1 construct: Bought recombinant proteins (His-tagged, or biotinylated via Avi-tag, e.g. AcroBiosystems FO1-H82E2, F01-H52H1); also called hFOLR1; huFOLR1
The experiment in a line: ELISA, periplasmic extract. From the text: (§1) From the lymphocytes of each llama a separate VHH library was constructed to select and screen for the presence of antigen-specific VHHs. To this end, total RNA from peripheral blood lymphocytes was used as template for first strand cDNA synthesis with an oligo ^{∘}dT) primer. Using this cDNA, the VHH encoding sequences were amplified by PCR, digested with PstI and NotI, cloned into the PstI and NotI sites of the phagemid vector pMECS and transformed into E. coli to generate VHH libraries. To enrich these libraries for FRα ^{∘}or FOLR1, as used interchangeably herein)-specific VHHs, a combinatorial panning approach on recombinant human and mouse FOLR1 was used followed by random selection and screening of clones by ELISA for the presence of antigen-specific VHHs in their periplasmic extracts ^{∘}PEs). In order to gauge the cross-reactivity for human and mouse FOLR1, each clone was tested on both antigens.
(§2) After panning of core76/77 on human and mouse folate receptor alpha ^{∘}FRα), […] were randomly selected from the second and third rounds and analyzed by ELISA on both human and mouse FRα for the presence of FRα-specific VHHs in their periplasmic extracts ^{∘}PE). This led to the identification of 98 hits. For these 98 hits, the off-rate ^{∘}koff) in the PE was determined by biolayer interferometry ^{∘}BLI) on both mouse and human FRα that was directly immobilized onto AR2G biosensors. The off-rates were calculated using a 1:1 binding model. […] Abbreviations: SE: standard error.
On the technique in general: An ELISA detects its analyte on a solid surface through an enzyme-linked reagent.

Experiment [2] deals with T2, mouse folate receptor alpha (mFRα), recombinant protein (mouse, UniProt P35846 25-232).
T2 construct: Bought recombinant proteins (e.g. biotinylated, Acro Biosystems FO1-M82E9); also called mFOLR1; Ms FOLR1
The experiment in a line: ELISA, periplasmic extract.
Source text: as §1, §2

The target of experiment [3] is T1, human folate receptor alpha (hFRα), …. Kind of experiment: BLI, FRα on AR2G biosensors, 1:1 model. As to the method: (§3) As a next step, the kinetic binding constants were determined using BLI ^{∘}Table 3). […] Similar to the ELISA results ^{∘}FIG. 1A-B), higher binding affinities were measured for mouse FRα than human FRα, with KD values […] one order of magnitude in most cases. […] For 3HFO28, binding to human FRα could not be confirmed by BLI, and this VHH was excluded from further characterization.
(§4) The kinetic parameters were calculated using a 1:1 binding model.
A general note: In BLI a coated tip is dipped into the sample, and binding shifts an interference pattern.

For experiment [4], the target named is T2, mouse folate receptor alpha (mFRα), …. Kind of experiment: BLI, FRα on AR2G biosensors, 1:1 model. As to the method:
as §3, §4

The target in experiment [5] is T3, human folate receptor beta (FRβ) (human, UniProt P14207 17-230, limits assumed).
T3 construct: also called hFOLR2; human FOLR2
Kind of experiment: method not named (follows the ELISA of Example 3).

Experiment [6] concerns the target T1, human folate receptor alpha (hFRα), …. The experiment in a line: BLI, periplasmic extract, FRα on AR2G biosensors. As to the method:
as §2

In experiment [7] the target is T2, mouse folate receptor alpha (mFRα), …. Kind of experiment: BLI, periplasmic extract, FRα on AR2G biosensors. As to the method:
as §2

For experiment [8] the target is unchanged. The experiment in a line: ELISA on recombinant mouse FOLR1, cMyc tag detection, normalised binding, non-linear fit. As to the method: (§5) Data were normalized and technical replicates were plotted as mean±SD. Data were fitted by non-linear regression and the half-maximal effective concentration ^{∘}EC50) was calculated using GraphPad Prism 9 software. ^{∘}FIG. 1C and FIG. 1D) Binding affinity determination of anti-FOLR1 VHHs for native FOLR1. Mouse ^{∘}FIG. 1C) or human FOLR1 FIG. 1D) was overexpressed on HEK293T cells and binding of the anti-FOLR1 VHHs was assessed using flow cytometry. The mean fluorescence intensity ^{∘}MFI) of the phycoerythrin signal was plotted for each VHH concentration. Data were fitted by non-linear regression using GraphPad Prism 9 software. ^{∘}FIG. 1E) Determination of the competition of representative family members with folic acid ^{∘}FA) using ELISA. Mouse FOLR1 was coated on the plate and was pre-incubated with or without 100 μM FA before adding the VHHs. Data were fitted by non-linear regression using GraphPad Prism 9 software.
(§6) In a first step, binding affinity and cross-reactivity of the purified VHHs to human and mouse FRα was assessed by ELISA, using detection of the cMyc tag ^{∘}FIG. 1A-B). […] 2HFO19 ^{∘}family 1) was the best binder of all tested VHHs to both mouse and human FRα with an EC₅₀ of 0.1 nM and 0.4 nM respectively ^{∘}FIG. 1A-B).

The target in experiment [9] is T1, human folate receptor alpha (hFRα), …. The experiment in a line: ELISA on recombinant human FOLR1, cMyc tag detection, normalised binding, non-linear fit. As to the method: as §5, §6
In experiment [10] the target is T4, mouse folate receptor alpha expressed on transfected HEK293T cells (mouse, UniProt P35846 25-232).
T4 construct: also called cell-expressed mouse FRα
The experiment in a line: flow cytometry on HEK293T cells overexpressing mouse FOLR1, His tag detection, PE MFI, non-linear fit. As to the method: as §5

The target in experiment [11] is T5, human folate receptor alpha expressed on cells (transfected HEK293T, HeLa, MCF7, MDA-MB-231) (human, UniProt P15328 25-234).
T5 construct: HEK293T transiently transfected with human FOLR1; also called native human FRα; cell-expressed human FOLR1
The experiment in a line: flow cytometry on HEK293T cells overexpressing human FOLR1, His tag detection, PE MFI, non-linear fit. As to the method:
as §5
A general note: Flow cytometry measures light scatter and fluorescence of single cells or particles in a stream.

In experiment [12] the target is T2, mouse folate receptor alpha (mFRα), …. Kind of experiment: BLI tandem binning on mouse FRα; competitor (1st association) 2HFO19. From the text:
(§7) VHHs that share high sequence identity in the CDR3 region, a VHH family, are derived from the same B-cell lineage and diverged from each other due to somatic hypermutation or affinity maturation. Typically, VHHs from the same family recognize the same epitope on the target, but may differ in other characteristics ^{∘}De Genst et al 2006 PNAS 103:4586-4591; De Gents et al 2005 J Biol Chem 280:14114-14121). To study whether the VHHs from the different families bound different epitopes, epitope binning was performed using a tandem binding approach in BLI. One VHH from each family was allowed to bind to mouse FRα on the biosensor, followed by binding of the second VHH ^{∘}Table 4).
(§8) Competition between VHHs from different complementarity determining region ^{∘}CDR) 3 families was assessed in a tandem binding assay using biolayer interferometry ^{∘}BLI). Streptavidin biosensors were loaded with biotinylated mouse FRα ^{∘}Acro Biosystems, Cat.nr. FO1-M82E9), followed by binding of anti-FRα VHHs ^{∘}VHH in first association). The biosensors were then transferred to a solution containing a second VHH mixed 1:1 with the first VHH ^{∘}VHH in second association). Using the FortéBio Data Analysis Software the absolute additional binding signal for the second association on top of the first association was calculated. The data were normalized per VHH in first association using the following formula: ^{∘}signal-self)/^{∘}maximum-self) with self being the value of the VHH in first association in combination with the same VHH in second association.

Experiment [13] has the same target. Kind of experiment: BLI tandem binning on mouse FRα; competitor (1st association) 2HFO42.
Source text: as §7, §8

Experiment [14] shares this target. The experiment in a line: BLI tandem binning on mouse FRα; competitor (1st association) 2MFR32.
Source text: as §7, §8

Experiment [15] shares this target. The experiment in a line: BLI tandem binning on mouse FRα; competitor (1st association) 3MFR60.
Source text: as §7, §8

For experiment [16], the target named is T1, human folate receptor alpha (hFRα), …. The experiment in a line: BLI, purified VHH. A digest of the protocol:
(§9)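 Affinity-optimised VHH variants were produced as flag3-His6-tagged proteins in TG-1 E. coli at 0.5 L scale. They were purified from the periplasmic fraction on Ni Sepharose FastFlow columns, desalted, and checked for purity by SDS-PAGE. Off-rates to human, mouse and cynomolgus folate receptor alpha were then determined by biolayer interferometry.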

Experiment [17] deals with T2, mouse folate receptor alpha (mFRα), …. The experiment in a line: BLI, purified VHH. Put shortly: as §9
Experiment [18] has as its target T6, cynomolgus folate receptor alpha, recombinant (cynomolgus, UniProt A0A2K5U044 25-233).
T6 construct: also called cyFOLR1; cynomolgus FRα
The experiment in a line: BLI, purified VHH. A digest of the protocol: as §9

Experiment [19] addresses T5, human folate receptor alpha expressed …. Kind of experiment: flow cytometry on HeLa cells, anti-Flag detection. As to the method: EC₅₀ values are found in Table 9. Detection of VHH cell binding was done through anti-Flag M2 mIgG1 followed by anti-mFc-PE in flow cytometry. Results are depicted as mean fluorescence intensity ^{∘}MFI).
Off-rates of purified variants were determined to human, mouse, and cynomolgus FRα in BLI. In addition, binding of the affinity optimised variants to cell-expressed human FRα on HeLa cells was determined by flow cytometry ^{∘}FIG. 10 B).

In experiment [20] the target is T1, human folate receptor alpha (hFRα), …. The experiment in a line: BLI, VHH captured by anti-FLAG antibody on mouse Fc biosensors. Put shortly:
(§10)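 VHHs were captured with an anti-FLAG tag antibody on mouse Fc biosensors. Binding to rhesus monkey, mouse and human folate receptor alpha was then measured by biolayer interferometry. kon, koff and the equilibrium dissociation constant (KD) were calculated using a 1:1 binding model.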

In experiment [21] the target is T2, mouse folate receptor alpha (mFRα), …. The experiment is described as above. Put shortly:
as §10

In experiment [22] the target is T7, rhesus monkey folate receptor alpha, recombinant (rhesus monkey, UniProt F7BP60 25-233).
T7 construct: also called rhFolR1; rhesus macaque FRα
The description is as above. A digest of the protocol: as §10

Experiment [23] addresses T1, human folate receptor alpha (hFRα), …. Kind of experiment: BLI, Avi-biotinylated FRα on streptavidin biosensors, VHH 100 nM. As to the method:
(§11) The binding of humanized variants of 2HFO42 was assessed by kinetic binding analysis to mouse and human FRα protein, biotinylated via an Avi-tag, captured on streptavidin biosensors by biolayer interferometry ^{∘}BLI), essentially as described earlier. VHHs were analysed at 100 nM concentration, and off-rates were determined using fitting of 1:1 langmurian interaction. Dissociation constants were compared to 2HFO42^{∘}Q1E, Q5V, Q108L) ^{∘}P101500004) and 2MFR67 ^{∘}Q1E, Q5V, Q108L) ^{∘}P0150000), respectively.

For experiment [24], the target named is T2, mouse folate receptor alpha (mFRα), …. The description is as above. As to the method:
as §11

For orientation: Kd means the equilibrium constant for the complex coming apart. In general, koff refers to a measure of how fast the partners let go of each other. For orientation: kon means the rate constant with which the complex forms. The term EC50 denotes the concentration needed to bring the measured effect to its halfway point.

T2 sequence (P35846 25-232 limits assumed): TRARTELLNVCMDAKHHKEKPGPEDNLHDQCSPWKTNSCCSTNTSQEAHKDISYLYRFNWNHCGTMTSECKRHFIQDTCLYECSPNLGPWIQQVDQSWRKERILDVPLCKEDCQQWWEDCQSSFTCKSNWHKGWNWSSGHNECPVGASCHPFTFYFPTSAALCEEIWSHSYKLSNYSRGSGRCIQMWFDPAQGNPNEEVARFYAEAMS
T1 sequence (P15328 25-233 limits assumed): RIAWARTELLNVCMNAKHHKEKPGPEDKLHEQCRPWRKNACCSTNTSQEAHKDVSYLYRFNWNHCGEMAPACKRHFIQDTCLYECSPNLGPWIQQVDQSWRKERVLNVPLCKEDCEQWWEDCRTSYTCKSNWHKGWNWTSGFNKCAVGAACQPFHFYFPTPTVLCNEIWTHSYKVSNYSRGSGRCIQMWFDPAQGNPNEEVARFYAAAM
T5 sequence (P15328 25-234 limits assumed): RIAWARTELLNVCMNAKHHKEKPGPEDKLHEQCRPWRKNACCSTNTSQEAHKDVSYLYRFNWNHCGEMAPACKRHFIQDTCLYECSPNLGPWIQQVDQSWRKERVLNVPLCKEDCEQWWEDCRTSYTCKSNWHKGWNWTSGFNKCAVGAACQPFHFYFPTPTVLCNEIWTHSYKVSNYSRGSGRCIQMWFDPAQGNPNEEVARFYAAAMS
T7 sequence (F7BP60 entry or part of it): as the sequence (P15328 25-233 limits assumed) above, with I2T, W4R, R37K, A146P, H171Y counted along it
T3 sequence (P14207 17-230 limits assumed): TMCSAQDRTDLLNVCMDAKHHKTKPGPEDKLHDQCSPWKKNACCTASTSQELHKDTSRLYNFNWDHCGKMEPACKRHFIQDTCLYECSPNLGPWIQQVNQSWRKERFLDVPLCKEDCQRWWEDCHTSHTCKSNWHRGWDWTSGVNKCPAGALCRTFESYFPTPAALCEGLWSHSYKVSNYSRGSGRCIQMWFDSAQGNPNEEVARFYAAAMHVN
T4 sequence (P35846 25-232 limits assumed): as the sequence (P35846 25-232 limits assumed) above
T6 sequence (A0A2K5U044 entry or part of it): as the sequence (P15328 25-233 limits assumed) above, with I2T, W4R, R37K, A146P, H171Y counted along it

B1: VHH 2MFR7 (family 1) (VHH)
VHH: QVQLQESGGGLVQPGGSLRLSCAASGFPFSTYYMSWVRQAPGKGLEWVSGINSNGGVIDYADSVKGRFTISRDNAKNTLYLQLNSLKPEDTALYFCARGRAFVATMPSSLRGQGTQVTVSS
notes: also called 2MFRO7
For B1, the “PE-ELISA (ratio to uncoated well)” value is 12.4 in [1] and 14.1 in [2]. For the same molecule, the equilibrium dissociation constant (Kd) in experiment [3] was 0.0709 µM; in experiment [4], 0.0167 µM. Further, the koff in [3] is 0.0849 s⁻¹; in experiment [4], 0.0527 s⁻¹; in experiment [6], 0.108 s⁻¹; in experiment [7], 0.0542 s⁻¹. Besides, the kon in experiment [3] worked out at 1.2e+06 M⁻¹ s⁻¹; in [4], 3.15e+06 M⁻¹ s⁻¹. The binding result in experiment [5] was “no binding”. Further, the EC50 was 0.0006 µM in [8], 0.0116 µM in experiment [9], 0.0015 µM in experiment [10] and 0.0202 µM in [11].

B2: VHH 2MFR32 (VHH)
VHH: QVQLQESGGGLVQAGGSLRVSCAASGFPFSTVYMSWVRQAPGKGLEWVSGINSNGGVIDYADSVKGRFTISRDNANNTLYLQLNSLKPEDTALYFCAKGRAFVATMPSSLRGQGTQVTVSS
notes: also called 2MF832
As for B2, the “normalized additional binding in 2nd association” value in [12] came out at 100%; in experiment [13] it was 100%; in [14] it was 0%; in experiment [15] it was 100%.

B3: P01500008: 2MFR67(Q1E, Q5V, Q108L)-FLAG3-HIS6 (VHH)
VHH: EVQLVESGGGLVQAGGSLRLSCAASGSGFSGMIMGWYRQAPGKQRELVATVTSHGTTNYADSVKGRFTISREDSKNTVLLQMNSLKPEDTAVYYCNAHFPGIYWGKGTLVTVSS
notes: Entry includes the tags; also called 2MFR67-Flag3-His6
As to B3, the koff in [16] turned out to be 0.00282 s⁻¹; in experiment [17], 0.000447 s⁻¹; in experiment [18], 0.000454 s⁻¹; in experiment [20] it was 0.0031 s⁻¹; in experiment [21], 0.000571 s⁻¹; in experiment [22], 0.00434 s⁻¹. In addition, the koff came out at 0.00304 s⁻¹ in experiment [23] and 0.00042 s⁻¹ in experiment [24]. In addition, the EC50 in experiment [19] worked out at 0.0056 µM. The MFI top in [19] was 54900 MFI. In addition, the Kd amounted to 0.00878 µM in experiment [20], 0.00252 µM in [21] and 0.0138 µM in [22]. Also, the kon in experiment [20] came to 353000 M⁻¹ s⁻¹; in [21] it was 227000 M⁻¹ s⁻¹; in experiment [22], 315000 M⁻¹ s⁻¹.

For the origin of these results see US20250304677A1 (VIB VZW, published 2025).
